Here are results for 35 sequences from the supplement of paper PMC12764529.

± gives the half width of the 95% confidence interval.

Data set [1] in a line: folding stability dG unfold (combined trypsin and chymotrypsin); higher = more stable. An outline of the steps:
(§1)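 Only designs with AlphaFold2 dimer inter-PAE above 15 were retained; each was a mini-protein under 80 residues with no cysteine, in a PA-tagged cDNA display construct. After digestion with trypsin and chymotrypsin and sequencing, K50 was inferred by Bayesian fitting of counts, and unfolding free energy was derived per protease or combined against a sequence-predicted unfolded-state K50 and a shared folded-state K50.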

The nature of data set [2]: folding stability dG unfold from chymotrypsin proteolysis; higher = more stable. An outline of the steps:
as §1

Data set [3] can be described thus: folding stability dG unfold from trypsin proteolysis; higher = more stable. An outline of the steps:
as §1

“SAGGSAGGSAKKKKKKFKIVKIEIEVEVVKDKKTNKYYVKVKIKIYLKGNKKEFEMEFVFPSAGGSAGGSAG [r3_424_TrROS_Hall]”: the “folding stability dG unfold” value in data set [1] worked out at 3.37 ± 0.59 kcal/mol; in data set [2], 4.07 ± 0.24 kcal/mol; in data set [3], 2.29 ± 0.24 kcal/mol.
Consider “SAGGSAGGSAKKKVEIKIEIEEVTNKDGKKYIKIKIEVKVSEEVKKELADALKKAGFKVEPSAGGSAGGSAG [r3_157_TrROS_Hall]”, for which the “folding stability dG unfold” value was 2.17 ± 0.16 kcal/mol in data set [1], 2.43 ± 0.093 kcal/mol in data set [2] and 1.54 ± 0.091 kcal/mol in data set [3].
“SAGGSAGGSAKKKYVFTIPVKPNTFNPEKLKKFIEKAFPEFKNYEIKVEVLPDGTAKVYIEASAGGSAGGSA [r18_65_TrMRF]”: the “folding stability dG unfold” value was 3.89 ± 0.24 kcal/mol in data set [1], 4.4 ± 0.11 kcal/mol in data set [2] and 2.69 ± 0.12 kcal/mol in data set [3].
Regarding “SAGGSAGGSAKKPPVYKIKIKVVNKKTKKEIEIEVEVKAGKTPEEIAKELAKKFGIEKVEIESAGGSAGGSA [r18_58_TrROS_Hall]”, the entries for the “folding stability dG unfold” value in data set [1], in data set [2] and in data set [3] were 1.45 ± 0.27 kcal/mol, 1.47 ± 0.18 kcal/mol and 1.14 ± 0.12 kcal/mol, respectively.
The corresponding values for “SAGGSAGGSAKPDPGAPYPWKIVEVVPIRIDMYFKFPGEPFKMDIEIPILVMVDPDNGKIFSAGGSAGGSAG [r3_391_TrROS]” are 2.7 ± 0.14 kcal/mol, 2.94 ± 0.064 kcal/mol and 2.3 ± 0.11 kcal/mol.
Regarding “SAGGSAGGSAKPKITVTVEEVTNEDGSTYYRATARIEETGRTIEIYVRRDDLGKPVAIKITSAGGSAGGSAG [r3_432_TrROS_Hall]”, the “folding stability dG unfold” value worked out at 2.18 ± 0.12 kcal/mol in data set [1], 2.4 ± 0.085 kcal/mol in data set [2] and 1.82 ± 0.058 kcal/mol in data set [3].
Turning to “SAGGSAGGSAKPKLHIHILTAGPFEELAELLEELAKRIFPPELEIDIHIHYIPKELLHPELGSAGGSAGGSA [r18_498_TrMRF]”, the “folding stability dG unfold” value is 2.59 ± 0.077 kcal/mol in data set [1], 2.51 ± 0.041 kcal/mol in data set [2] and 2.74 ± 0.15 kcal/mol in data set [3].
In the case of “SAGGSAGGSAKPNNAELVKVTYDPETGDFYAFYKIKNTDTVYVLRFNKDGTVEVKEYKFSEASAGGSAGGSA [r18_521_TrMRF]”, the “folding stability dG unfold” value stood at 3.68 ± 0.17 kcal/mol in data set [1], 3.96 ± 0.08 kcal/mol in data set [2] and 2.96 ± 0.21 kcal/mol in data set [3].
The matching figures for “SAGGSAGGSAKPTFDNVENLSLEELAKKIAKEAAEKYPDAKNVEVEFRLPNGKSYRIVVDVDSAGGSAGGSA [r18_449_TrMRF]”: 1.26 ± 0.096 kcal/mol, 1.26 ± 0.12 kcal/mol and 1.21 ± 0.036 kcal/mol.
The matching figures for “SAGGSAGGSAKRKVIEVDSLEEIKKAIEEAKEGEVVEIVVRDPETNETYTLKVVDGKIVLIPSAGGSAGGSA [r18_407_TrROS_Hall]”: 2.27 ± 0.049 kcal/mol, 2.664 ± 0.014 kcal/mol and 1.32 ± 0.039 kcal/mol.
As to “SAGGSAGGSAKSVVRIKIYNKKTGKVLEIEIPENMTEEEIKKLAEELAKKNNVEIVEVEKVPSAGGSAGGSA [r18_322_TrROS_Hall]”, the entries for the “folding stability dG unfold” value in data set [1], in data set [2] and in data set [3] were 2.63 ± 0.12 kcal/mol, 2.99 ± 0.051 kcal/mol and 1.83 ± 0.051 kcal/mol, respectively.
The corresponding values for “SAGGSAGGSAKTITITFLFDSPENAKDFVREIAQEDGMKIKVEWERDPEGWWWVTATIEVPSAGGSAGGSAG [r3_273_TrROS]” are 3.14 ± 0.15 kcal/mol, 3.48 ± 0.13 kcal/mol and 2.36 ± 0.1 kcal/mol.
For the sequence “SAGGSAGGSAKVVVDEVEVEVFKNEDGEEVLRVRFKKTGEEVEIPLEDLEKLELPPGAVVEPSAGGSAGGSA [r18_288_TrROS_Hall]”, the “folding stability dG unfold” value came to 1.41 ± 0.07 kcal/mol in data set [1], 1.84 ± 0.05 kcal/mol in data set [2] and 0.246 ± 0.035 kcal/mol in data set [3].
The matching figures for “SAGGSAGGSAKYLVVGGKVIEIPSGGDAKIETTKDDRVKVTIDLPDDRKLEFTFPVPKWVGSAGGSAGGSAG [r3_207_TrMRF]”: 0.408 ± 0.07 kcal/mol, 0.215 ± 0.099 kcal/mol and 0.514 ± 0.029 kcal/mol.
On to “SAGGSAGGSALAEELAAKYPGLQVEVTRVEVEREVTDADGRKRTERVERLEIRVVKPGEELSAGGSAGGSAG [r3_358_TrROS_Hall]”, for which the figures for the “folding stability dG unfold” value in data set [1], in data set [2] and in data set [3] were 0.164 ± 0.18 kcal/mol, -0.0574 ± 0.06 kcal/mol and 0.5 ± 0.034 kcal/mol, respectively.
Regarding “SAGGSAGGSALDSLVPDIDLRVRVEPVPDDPSILRADVELSDGLVLEVEFLPSGVARVSLSGKGSAGGSAGG [r6_122_TrMRF]”, the “folding stability dG unfold” value in data set [1] was -0.0927 ± 0.058 kcal/mol; in data set [2] it was -0.246 ± 0.11 kcal/mol; in data set [3], -0.0307 ± 0.084 kcal/mol.
With “SAGGSAGGSALIIVAPDGFIISIEWPNGKPRTIMMPPDEIDEILEDDGIKDIEIQKLPPGASAGGSAGGSAG [r3_141_TrROS]”, the “folding stability dG unfold” value in data set [1] was determined as 1.14 ± 0.074 kcal/mol; in data set [2], 1.49 ± 0.036 kcal/mol; in data set [3], 0.388 ± 0.05 kcal/mol.
With “SAGGSAGGSALKPNETATIRILTTAPDGKPYVLVVEVRVLPDGGVEVLGYKLVTLSDLEKNSAGGSAGGSAG [r3_212_TrMRF]”, the entries for the “folding stability dG unfold” value in data set [1], in data set [2] and in data set [3] were 3.32 ± 0.11 kcal/mol, 3.74 ± 0.082 kcal/mol and 2.53 ± 0.11 kcal/mol, respectively.
The corresponding values for “SAGGSAGGSALPLPPDQRLYVFRDPEGDLYLVRFEDGSEVRTSLKAEDLEKLGVPVVDIGDLSAGGSAGGSA [r18_125_TrMRF]” are 1.66 ± 0.032 kcal/mol, 1.49 ± 0.037 kcal/mol and 1.73 ± 0.035 kcal/mol.
In the case of “SAGGSAGGSAMEELVKEAIKEGKPGEVVLIRNEDGSVFALTVKDGKIEIKKLEEVKEVVEESAGGSAGGSAG [r3_244_TrROS_Hall]”, the “folding stability dG unfold” value in data set [1] is 1.15 ± 0.17 kcal/mol; in data set [2], 1.06 ± 0.093 kcal/mol; in data set [3], 1.45 ± 0.09 kcal/mol.
As for “SAGGSAGGSAMEIEIEIEIPVPVPGGVPSPENPEVAEERAEEIKEKYAKEGLKVKVKITVVSAGGSAGGSAG [r3_258_JUSTAS]”, the “folding stability dG unfold” value is 1.07 ± 0.3 kcal/mol in data set [1], 1.13 ± 0.061 kcal/mol in data set [2] and 1.22 ± 0.21 kcal/mol in data set [3].
Take “SAGGSAGGSAMELVVKEVEYRGPLSLSIEEIAEEIEKKEGIKVIELEEYPDEKVKITIEKVSAGGSAGGSAG [r3_66_JUSTAS]”: the “folding stability dG unfold” value in data set [1] was 0.485 ± 0.19 kcal/mol; in data set [2], 0.764 ± 0.12 kcal/mol; in data set [3], -0.463 ± 0.16 kcal/mol.
As to “SAGGSAGGSAMITIKVSPDVPVPSNTPITLPNGKKVKATVTPVPSPEDGTPVLKITLDPNLISAGGSAGGSA [r18_476_JUSTAS]”, the figures for the “folding stability dG unfold” value in data set [1], in data set [2] and in data set [3] were 0.446 ± 0.044 kcal/mol, 0.891 ± 0.023 kcal/mol and -0.934 ± 0.24 kcal/mol, respectively.
The corresponding values for “SAGGSAGGSAMITSDDLEKLLKKLGIDPKKLGPEKLAKIFKELYPDAIITADPEGKAYIYPSAGGSAGGSAG [r3_375_TrMRF]” are 1.2 ± 0.14 kcal/mol, 0.467 ± 0.19 kcal/mol and 1.72 ± 0.07 kcal/mol.
The corresponding values for “SAGGSAGGSAMIVTEEGNTITITTLTNLTFPTTGATSTATTTTTITLPPTPLFPVPRTDNSLSAGGSAGGSA [r18_501_JUSTAS]” are 0.44 ± 0.24 kcal/mol, 0.819 ± 0.12 kcal/mol and -0.21 ± 0.11 kcal/mol.
For the sequence “SAGGSAGGSAMKIKIEVVKNKNGYYYLKVEIEVNGKKIEITIKVPKNEKVSIEELLKKILKKSAGGSAGGSA [r18_111_TrROS_Hall]”, the “folding stability dG unfold” value in data set [1] worked out at 4.07 ± 0.16 kcal/mol; in data set [2], 4.55 ± 0.12 kcal/mol; in data set [3] it was 2.78 ± 0.12 kcal/mol.
On to “SAGGSAGGSAMKKVTITLLDPRNGKEHTVTLPADITEEEAKAAAEAVAAERGWEVLSIEFEPSAGGSAGGSA [r18_322_JUSTAS]”, for which the “folding stability dG unfold” value stood at 3.57 ± 0.071 kcal/mol in data set [1], 3.43 ± 0.1 kcal/mol in data set [2] and 3.61 ± 0.072 kcal/mol in data set [3].
Consider “SAGGSAGGSAMKLKVPTKDGKVYEVTVVDYDPENEKVVVKNPDTDELYTFSLEDFKKILEANSAGGSAGGSA [r18_161_TrMRF]”, for which the “folding stability dG unfold” value came to 3.36 ± 0.12 kcal/mol in data set [1], 3.55 ± 0.08 kcal/mol in data set [2] and 2.72 ± 0.17 kcal/mol in data set [3].
In the case of “SAGGSAGGSAMKTIEIDIVIKNKETGEYYKAKAKIFENEDGSLIIEIEFEKNGKTLLIVLPPSAGGSAGGSA [r18_426_TrROS_Hall]”, the “folding stability dG unfold” value was 3.61 ± 0.2 kcal/mol in data set [1], 3.82 ± 0.11 kcal/mol in data set [2] and 3.31 ± 0.096 kcal/mol in data set [3].
Consider “SAGGSAGGSAMKTIPVKTKEEAEKLAEELKASGYGEVKKTKSGNIIVKAPDGIDVKIVVPEKSAGGSAGGSA [r18_126_JUSTAS]”, for which the “folding stability dG unfold” value in data set [1] is 0.574 ± 0.19 kcal/mol; in data set [2] it was 0.712 ± 0.072 kcal/mol; in data set [3], 0.098 ± 0.068 kcal/mol.
In the case of “SAGGSAGGSAMLIVGGADPEGAAEAAEEFIAAIEKAAEELGIPPEHIEIPVLIAEPGEAPGSAGGSAGGSAG [r3_249_TrMRF]”, the “folding stability dG unfold” value was 0.834 ± 0.12 kcal/mol in data set [1], 0.289 ± 0.052 kcal/mol in data set [2] and 1.19 ± 0.056 kcal/mol in data set [3].
“SAGGSAGGSAMLRIKIYYKKNGEEYEIEVEGSLEEALKEAAKKLGLSEDEIKKIEIEELPESAGGSAGGSAG [r3_79_TrROS_Hall]”: the results for the “folding stability dG unfold” value in data set [1], in data set [2] and in data set [3] were 3.41 ± 0.2 kcal/mol, 3.73 ± 0.086 kcal/mol and 2.66 ± 0.12 kcal/mol, respectively.
For “SAGGSAGGSAMLRIRFENGLEIEIPKDMTLEELKKLAEELAEELKKEGKEVEVKIVEIEPVPSAGGSAGGSA [r18_213_TrROS_Hall]”, the “folding stability dG unfold” value in data set [1] stood at 2.03 ± 0.075 kcal/mol; in data set [2], 2.21 ± 0.029 kcal/mol; in data set [3], 1.65 ± 0.044 kcal/mol.
On to “SAGGSAGGSAMLTKITITFEKPGTDETFTKPIDVPPDNPEEAIKAIKEELKKKGYKVKSVILSAGGSAGGSA [r18_3_JUSTAS]”, for which the entries for the “folding stability dG unfold” value in data set [1], in data set [2] and in data set [3] were 1.57 ± 0.15 kcal/mol, 1.73 ± 0.074 kcal/mol and 1.28 ± 0.078 kcal/mol, respectively.
The matching figures for “SAGGSAGGSAMLYRITVRNADGEKLEIVVEMSEDEVRALAEELRKAGYEVRVEPIPEGEEPSAGGSAGGSAG [r3_35_TrROS_Hall]”: 4.8 ± 0.15 kcal/mol, 4.79 ± 0.11 kcal/mol and 4.89 ± 0.21 kcal/mol.
